According to the DeepSol protein solubility set:

Assay: soluble on expression in E. coli; label from the status in PepcDB or PDB records

Sequence: SLALPADPIQRCLDIRRLVDITSRQKMAAKEPGVLRFKFHKISASELPLDNPVGNMDEVIQALNNQIENCNNSYGEFQTVTIAGHQFKRQEWCLNTNKKMLTLAKAAHGDFKKFLSSIKTEFDWYKSDGWPENHAGFKKGEFQFTAYYAPAAVEARSERGGAFLYPLYSNPGVVSVALESKKYNLKTPLCGVDPLSKVMRGFCLKNADGTYSVAPDREEIEHGALNPKYIIGYLKDPNDSAFLMLQGSGSLLLDGKLFHINYDGANGRPRTMLGRIVQCAQDPTCGGNLDTMERCAKDPKCHDEAKLRCNVSKKIRQSAASEKLIRQYLNNLTPDKADNLRNRDQSYVFFAKEDGGPYGSENISLTPHV
- soluble on expression in E. coli: not soluble

Sequence: MSWINRIFSKSPSSSTRKANVPEGVWTKCTACEQVLYSEELKRNLYVCPKCGHHMRIDARERLLNLLDEDSSQEIAADLEPKDILKFKDLKKYKDRINAAQKETGEKDALITMTGTLYNMPIVVAASNFAFMGGSMGSVVGAKFVKAAEKAMEMNCPFVCFSASGGARMQEALFSLMQMAKTSAVLAQMREKGVPFISVLTDPTLGGVSASFAMLGDLNIAEPKALIGFAGPRVIEQTVREKLPEGFQRSEFLLEKGAIDMIVKRSEMRQTLASVLSKLTNQPSPFVEPELISEDE
- soluble on expression in E. coli: not soluble

Sequence: LAGIAGVDRDPPGWPQHSHLLAGDPERFRHQLQRAETTNSIECFVAEWHHAGVAADMTRPWPTVVQGGAGQRRRRDVEPDRKTPVRWMSGQRLSEITWPTTDIEHSVGAAEVQRHRGAVPLGSGGDAAGKVEGGRTPQPFVQP
- soluble on expression in E. coli: not soluble

Sequence: MMIEGLEKMLAKGVDNALLRFGLGKGYLDAGDAERAAEHLQRCVEQDPKYSAGWKLLGKARQAAGDLAGARQAWEQGLATAATHGDKQAEKEMTVFLRKLDRART
- soluble on expression in E. coli: not soluble

Sequence: MKGRVRIRGIYATALTSIFSSLSYEIVQQSVEISERFMQEINNLSADITIKDFEDDRGKIIVMGNGIIEDDLRNVFKYSFHWRSPVKLYSVIEIDESCTYANFKVEPCLREGIVIKPPYDGKIILSETKAVSKYAIVWRGKGITTFSEHIVDEEEKMRLLTLSLPLNRKGYNVKWRSNAKYVALNELKEDLERLILRYENREFRDQGEDFYLITLSLPDKLYLDEVRKNVVDTVKYHHMLKLSYNREVDSLEKDKKGSLGKLLEGLISDFLKIEHIKADGKVIYLRGGKVIEKEVNDNGYRIVLRREFEGNGILDGIGKKIEEGDYDIVEYNSDKWYQIHKYYSGIDNSLKGVYINISTPPELLRGKIRYLDLEIDIAIRDSEIALLDEDELNKKSIYMPSSLVNKAKEVVNYLINRIQQNKLS
- soluble on expression in E. coli: not soluble

Sequence: MKKQLDQLTAYTPGLSPESLKKQYGIRGELHKLASNENVYGPSPKVKTAIQSHLDELYYYPESGSPKLREAISQQLNVDASRILFGAGLDEVILMISRAVLSPGDKIITSESTFGQYYHNAIVESADVIQVPLKDGGFDLDGMLQQIDNKTSLIWLCNPNNPTGTYFSHDELFNFLKRVPSDIPVLIDEAYVEFVTADDFPDTLKLQEDFDNAFLLRTFSKAYGLAGLRVGYVIASEDAIEKWNIIRPPFNVTRISEYAAIAALEDQEYLKEVTQKNSFERDKFYQIPQSQHFLPSQANFVFVKTSRSQALYDALLNVGCITRLFPNGVRITIGLPEQNNKMIEVLKHFEY
- soluble on expression in E. coli: not soluble

Sequence: MTDHLRGFYKAEFETARKKAHGVIFLHDGKIQGGDSTFLYSGAYSQSGLTVAGNLRGVRYSSDHSRLSVFGIEPFEITFDGVAKDGYVTIEGYAHETPSLPLKAILTRVDD
- soluble on expression in E. coli: not soluble

Sequence: MNGYVYLVGAGPGDEGLITKKAIECLKRADIVLYDRLLNPFFLSYTKQTCELMYCGKMPKNHIMRQEMINAHLLQFAQEGKIVVRLKGGDPSIFGRVGEEAETLAAANIPYEIVPGITSSTAASSYAGIPLTHRNYSNSVTLLTGHAKGSLTDHGKYNSSHNSDTIAYYMGIKNLPTICKNLRQAGKKEDTPVAVIEWGTTGKQRVVTGTLSTIVSIVKNENISNPSMTIVGDVVSLRDQIAWKEHKPLHGKKVLFTSATNKTSVMKQKLQEAGAEIYQIPTFKKEEYTLTLEQIIEIFNVNRLVFCSAESVEILMQSCSKYKKDIRSLQAELQHMNVATQEKLMQYGLLSKEAKFSSDTTVYLGRNINRIAFIQEKIGAGSYMMTHKYTIDHRFDEVHSRMLSEFLWDSIVFEGRASIDTFLAEVKRLGFLDIVTLPFSYTDVPTLRYANKVGFHNIDHQLQETLMQKDMVRQ
- soluble on expression in E. coli: not soluble

Sequence: MTEITHRTKTRPVKVGNLTIGGNNEVVVQSMTTTKTHDVEATVAEIKRLEEAGCQVVRVACPDMRAAEAIPAIKKQISIPLVVDIHFDYKLALKAIEGGADKIRINPGNIGKRHKVEAVVKAAKEKGIPIRIGVNAGSLEKRILDKYGYPTADGMVESALHHIKILEDLDFHDIIVSMKASDVNLAIEAYEKAAKAFDYPLHLGITESGTLFAGTVKSAAGLGAILNMGIGNTVRVSLSADPVEEVKVARELLKSFGLASNAATLISCPTCGRIEIDLISIANEMEEYISKIRAPIKVAVLGCAVNGPGEAREADIGIAGARGEGLLFRKGEIVRKVPEETMVEELKKEIDKIAEEYFAKQKELEKALEHHHHHH
- soluble on expression in E. coli: soluble

Sequence: MKPTAIFLMGPTASGKTDLAIQLRSQLPVEVISVDSALIYKGMDIGTAKPSKEELALAPHRLIDILDPSESYSAMNFRDDALREMADITAQGKIPLLVGGTMLYYKALIEGLSPLPSADENIRAELEQKAAQQGWAALHTELAKIDPISAARINPSDSQRINRALEVFYITGKSLTELTEEKGEALPYDFVQFAIAPQDRHVLHERIEQRFHKMIELGFQAEVEKLYARGDLNINLPSIRCVGYRQMWEYLQGDYAYEEMIFRGICATRQLAKRQLTWLRGWKTPIQWLDSLQPQQAKETVLRHLDSYQKGLEHHHHHH
- soluble on expression in E. coli: soluble

Sequence: MSLSVTDVAGRTVSFDAQPKRILLAEGRALMATSVLNKENPAKDVVAIGADLHKAAPSFESALRQARPQVSKLPMIGSIAKGDVTVENMLSFKPDAVVMTLDQKEAAEKAGFLQKMDQAKLPYVFIDFRRKPLENTTKSMATLGKIFGGKAISRAKEFNKFYQSKVDDVSRRVSRESDKPRTFLWRAAGLKDCCSTYANLNLGDVITAAGGHNLGADLLRTSAGDVTPEKIVATQPEHIIATGGSWAKDPKKPESVPHVELGYNVTDDDAQRTLAGLLKTPGFSLLKAPKDGKLHAVYHQFYDSPFNVFALEQFAAWQHPKQFKGVDLTKDFAKFHEDYLPFGYRGVFFVTLKEGHHHHHH
- soluble on expression in E. coli: soluble

Sequence: MSLQGRRRKSLVFFPFFKINDKGASAMEEMVVVTPEKLEKLMKQKLEAAGLHSEHAEEVARHLTFADASGIHSHGAVRMDYYAERIAKGGITIDPELSFEKTGPSTAIFHGDNGVGQFVCNEALAAAVDLAKESGVAYVGVSQTSHSGTLSYYVKKAAEQGMVALSMCQSDPMVVPFGGTSNYFGTNPIAFAAPRAGHEPVVFDMATTVQAWGKILDARSRDVEIPDTWAVDEKGQPTTDPYEVRGLLPISGPKGYGLMMMVDVLAGSLLGLPFGKHVSSMYADLTEKRNLGQMFLVIDPSRFTDSERFKENINQMVEELHCVPTAEGFQQVYYPGEIGQLNYQKAMSEGIEIPQSIYDYLVSEIVHYDKYGGQGAFAKEGGSHHHHHH
- soluble on expression in E. coli: soluble

Sequence: GEEGNSSELPLSAEDAKKLTELAENVLQGWDVQAEKIDVIQGNQMALVWKVHTDSGAVCLKRIHRPEKKALFSIFAQDYLAKKGMNVPGILPNKKGSLYSKHGSFLFVVYDWIEGRPFELTVKQDLEFIMKGLADFHTASVGYQPPNGVPIFTKLGRWPNHYTKRCKQMETWKLMAEAEKEDPFSQLYLQEIDGFIEDGLRIKDRLLQSTYVPWTEQLKKSPNLCHQDYGTGNTLLGENEQIWVIDLDTVSFDLPIRDLRKMIIPLLDTTGVWDDETFNVMLNAYESRAPLTEEQKQVMFIDMLFPYELYDVIREKYVRKSALPKEELESAFEYERIKANALRQLI
- soluble on expression in E. coli: soluble

Sequence: MGSDKIHHHHHHADKHDHKGQTPLVEVDGNFLYKEDLQAVLPAGLSKDDSLLFAEHYVRSWVEDVLLFNQAQSNIPDNGEIDKLVENYRKALIMHTYQQELISQKLSGEIPEQEIADYYEKNKELFKLDRPLMKGLFIKVPLTAPQLGNVRKWYKTETQDAVEHLEKYSLQNAVKYEYFYDKWVRVADVLDMIPLKAESPEAYMDKNRHIELKDTAFYYFLNISDFRVAGEQEPYEFAQPKVKDMLVNIKRVDFMKQVKDDLYERAVKRKKIINY
- soluble on expression in E. coli: not soluble

Sequence: MEDKNSVIVFKNVSFQYQSDASFTLKDVSFNIPKGQWTSIVGHNGSGKSTIAKLMIGIEKVKSGEIFYNNQAITDDNFEKLRKDIGIVFQNPDNQFVGSIVKYDVAFGLENHAVPYDEMHRRVSEALKQVDMLERADYEPNALSGGQKQRVAIASVLALNPSVIILDEATSMLDPDARQNLLDLVRKVKSEHNITIISITHDLSEAMEADHVIVMNKGTVYKEGTATEIFDNAEELTRIGLDLPFPIKINQMLGHQTSFLTYEGLVDQL
- soluble on expression in E. coli: not soluble

Sequence: MAAQRRSLLQSEQQPSWTDDLPLCHLSGVGSASNRSYSADGKGTESHPPEDSWLKFRSENNCFLYGVFNGYDGNRVTNFVAQRLSAELLLGQLNAEHAEADVRRVLLQAFDVVERSFLESIDDALAEKASLQSQLPEGVPQHQLPPQYQKILERLKTLEREISGGAMAVVAVLLNNKLYVANVGTNRALLCKSTVDGLQVTQLNVDHTTENEDELFRLSQLGLDAGKIKQVGIICGQESTRRIGDYKVKYGYTDIDLLSAAKSKPIIAEPEIHGAQPLDGVTGFLVLMSEGLYKALEAAHGPGQANQEIAAMIDTEFAKQTSLDAVAQAVVDRVKRIHSDTFASGGERARFCPRHEDMTLLVRNFGYPLGEMSQPTPSPAPAAGGRVYPVSVPYSSAQSTSKTSVTLSLVMPSQGQMVNGAHSASTLDEATPTLTNQSPTLTLQSTNTHTQSSSSSSDGGLFRSRPAHSLPPGEDGRVEPYVDFAEFYRLWSVDHGEQSVVTAP
- soluble on expression in E. coli: not soluble

Sequence: MASVELSADVPISPQDTWDHVSELSELGEWLVIHEGWRSELPDQLGEGVQIVGVARAMGMRNRVTWRVTKWDPPHEVAMTGSGKGGTKYGVTLTVRPTKGGSALGLRLELGGRALFGPLGSAAARAVKGDVEKSLKQFAELYGLEHHHHHH
- soluble on expression in E. coli: not soluble

Sequence: MFKVTFAFENGSEVEAFANAGDNLLEVARGANVAIDAPCSGNGACGKCRVQLKGGELDSKKTLHISDEEFEKGWRLACMSKICADVEVLVPDIASAYKSRMKVADLSSKEEIAIFEKAKNQVEETGIQLRNSLEVVELQMTEPTLDDTMPDVERLTRALRKFMNLKRIRVPYAVLRKLPDVLRASKFSVKCVVRVTPDDMFVYDIFDAKEDVIMGGLAVDIGTTTVSAVIINMATGEILAKSSSGNGQIRYGADVINRIIETTKPGGIKKLQDAVIKETINPMIHEMCRSIHLPENQIYRMCVASNTTMNHLFAGINADYLRTEPYIPAFFKTNSLFASDVGIEINGDAHIIMAPNIGSYVGGDITAGTLVSMIWNRPEFSLFIDLGTNGELVFGNSDFMMSCACSAGPAFEGGDISCGMRATDGAIEACTIDKETMEPTYKVVGEPGTKPVGLCGSGIIDVISELFMTGIINPKGKFVREGKRVRHDHYGMGSYVIAFEEEAGSVKDVEITEVDIDNFIRAKGAIFSAIRTMLSSLDFDVSMIDDVYVAGGIGSGINMQNAVNIGMFPDVPLEKFHYIGNSSLTGAYLMLLSTQAEKKTYELASNMTYMELSTVPTYMDEFVGACFIPHTDASMFPNVHQRLEHHHHHH
- soluble on expression in E. coli: not soluble

Sequence: MSLNVQGNLFRPLTLPNGLSLENRFVLSPMVTNSSTSEGFVTDDDIAYAVRRAKSAPLQITGAAYITEYGQLFEYGFSVSKDEDIPGLTKLAKAMKSKGAKAVLQLTHAGRFSSHTLARHGYVYGPSPMQLQSPYPHQVKELTHKDILRIIDEYVQATRRAIQAGFDGVEISSAQRLLIQTFFSTFSNQRKDEYGPQTLTNRCRLGLEVFKAVQKVIREEAESDFILGFRATPEETRGSQIGYSIEEFMEFLEKILAIAQVDYLAIASWGHDVFRNTIRSEGVYKGQLVNQVIFEHFGDRVPIMATGGINSASKVFEALQHAHMIGASTPLVVDPEFLQKIKAKCSDQINLRIKVSDLEGLAIPKEGHHHHHH
- soluble on expression in E. coli: not soluble
